In experiment [1] the test system is mouse CLP model of sepsis. The experiment is described as follows: Cecal ligation and puncture (CLP) model of sepsis. The experiment is classed as in vivo. Conditions: percent protection, isotype control subtracted. The procedure:
Anti-HMGB1 in Sepsis: To establish live intra-abdominal infection and sepsis, Balb/C mice (9-11 per group) were subjected to the CLP procedure as described previously (Fink and Heard, 1990, J Surg Res 49:186-196; Wichmann et al., 1996, J Surg Res 65, 109-114). After anesthesia with an intramuscular injection of ketamine (75 mg/kg, Fort Dodge Laboratories, Fort Dodge, Iowa) and xylazine (20 mg/kg, Bochringer Ingelheim), a 15-mm midline incision was made to expose the cecum. After ligation 5.0 mm from the tip, the cecal stump was punctured once with a 22-gauge needle, and small amount of stool (1-mm length) was extruded. The cecum was placed back into its normal intra-abdominal position, and the wound was closed with two layers of running suture. All animals received saline-solution (0.9% s.c., 20 ml/kg of body weight) resuscitation, and a single dose of antibiotic (0.5 mg of imipenem per mouse in 200 μl of sterile saline injected s.c.) (Primaxin, Merck) 30 min after surgery.
Anti-HMG1 antibodies or isotype control antibodies (50 μg/mouse in a 200 μl volume), were administered intraperitoneally at 24 and 48 hours, post surgery. In certain follow up experiments anti-HMG1 antibodies or isotype control antibodies (8 mg/kg) were administered intraperitoneally at 24 hours, post surgery (FIG. 11C-D). These experiments were blinded—the surgeons randomized the cages, and the encoded antibodies were dosed by another investigator. The survival of the mice was monitored twice daily for a total of 14 days. The survival curves for several representative experiments where the antibodies were delivered at 50 μg/mouse at times 24 and 48 are shown in FIGS. 11A and 11B. The survival curve generated by combining several representative experiments where the antibodies were delivered at 8 mg/kg 24 hours post surgery is shown in FIG. 11C. Several additional antibodies and the oligoclonal antibody pool were tested at 8 mg/kg administered 24 hours post surgery (FIG. 11D).

Experiment [2] has as its system passive CIA mouse model of arthritis. The experiment in a line: Passive collagen-induced arthritis (CIA) mouse model. Format: in vivo. The following applies: percent protection, isotype control subtracted. The procedure:
Induction of Passive Collagen Induced Arthritis (CIA): To establish an arthritis model six-eight week old male DBA/1J mice (Jackson Labs, Bar Harbor, Me.) were used. Generally 5-8 mice per group are used, On day 0, mice were immunized with 2 mg/mouse of anti-collage mAb cocktail (Chemicon # ECM1100, 10 mg/ml) intravenously, i.v. at tail. Mice were subsequently injected with 50 μg LPS/mouse, i.p. on day 3. Each experiment had several groups of animals as follows: groups A-E in experiment 1, groups G-J in experiment 2 and groups L-N). An additional group of mice (groups F, K and O) were untreated as normal controls.
Monitoring Disease: Beginning at day 0 all animals were observed daily to assess the status of the disease in their paws, which was done by assigning a qualitative clinical score to each of the paws. Every day, each animal has its 4 paws scored according to its state of clinical disease. The scoring is done by two observers, with at least one blinded. In addition, each mouse is weighed, to follow body weight changes, at the same time the paws are scored (see FIGS. 6A and 6D)
The grading scale for the 4 lateral digits of each paw are graded as involved or not involved, i.e., 1 or 0. For example, a maximally involved left rear paw would be scored: ankle=3, midfoot=3, digits=4 (clinical score=10 units) We would repeat this for each paw and sum the scores. […]

Another experiment relates to HMG1 peptides. The experiment in a line: HMG1 B Box and peptide mapping ELISA. The experiment is classed as binding. Conditions: overlapping HMGB1 peptides. The method, then: HMG1 B Box and Peptide Mapping: Individual wells of a 96-well immunoplate (EIA/RIA plate, High binding, Costar) were coated with HMG1 B Box peptide amino acids 91-169 (FIG. 5A) or amino acids 150-183 (FIG. 5B) at 10 μg/ml in PBS at 4° C. overnight. The plate was then blocked with 4% milk powder dissolved in PBS at 37° C. for 1 hour. The blocking solution was removed and replaced with human anti-HMG1 antibodies at various concentrations (see FIGS. 5A-B). The plate was then washed (ELX-405 Plate washer, BIO-TEK) and secondary antibody (anti-human IgG-HRP, PIERCE) was added at a final concentration of 1:125,000 at 37° C. for 1 hour. HRP activity was detected with Sureblue HRP substrate (KPL). Plates were read at 450 nm using a Kinetic Microplate Reader (Molecular Devices). To obtain more detailed peptide mapping information, similar ELISA assays were performed using 16 biotinylated overlapping peptides spanning the HMGB1 protein from amino acid 1 to 215 as follows, maxisorp microtiter plate was coated with 2 μg/ml of NeutroAvidin (Pierce) overnight at 4° C. After washing and blocking with 1% BSA in PBS, the biotinylated peptides were individually added into the avidin coated wells and incubated for 30 min at room temperature. The serial diluted antibody G4, S16 and S6 at the initial concentration at 10 μg/ml were then transferred into the wells followed by adding mouse anti human IgG-HRP conjugate (Pierce). Detection was accomplished by adding 50 μl of tetramethylbenzidine (TMB) substrate (KPL) and the absorbance was read at […]. The peptides used were amino acids: 46-63; 61-78; 76-93; 91-108; 106-123; 136-153; 151-168; 166-183; 179-185; 181-198; and 196-215.
(In general: In an ELISA, binding on a coated surface is turned into a signal by an enzyme label.)

“Also recorded” adds a separate entry of the source.

B1: S16: human anti-HMG1 antibody, ATCC PTA-6259; VL/VH aa SEQ ID NO: 13/15 (antibody, listed as Homo sapiens, V domains shown)
VH: EVQLLESGGGLVQPGGSLRLSCAASGFTFSWYSMLWVRQAPGKGLEWVSYISPSGGFTNYADSVKGRFTISRDNSKNTLYLQMNSLRAEDTAVYYCARWDYNSGWYYDHWGQGTLVTVSS
VL: AQDIQMTQSPDTLSLSPGERATLSCRASQSVNSRNLAWYQQKPGQAPRLLIYGASTRATGIPDRFSGSVSGTEFTLTISSLQPDDFATYYCQQYNSYFTFGQGTKLEIK
B1: the “in vivo CLP” value in experiment [1] is on record as 60-75%. In experiment [2], the “in vivo CIA passive” value worked out at 0%. The “detailed peptide mapping / domain recognized” value in the experiment on HMG1 peptides was “strongest binding to the B-box peptide 91-108 with lesser binding to peptides 166-183 and 179-186; also recorded: binds the B-box peptide 91-108 and to a lesser extent peptides 166-183 and 179-186”.

B2: G2: human anti-HMG1 IgG1 from Fab phage display library; VL/VH aa SEQ ID NO: 30/32 (antibody, listed as Homo sapiens, V domains shown)
VH: EVQLLESGGGLVQPGGSLRLSCAASGFTFSWYKMQWVRQAPGKGLEWVSGISPSGGSTAYADSVKGRFTISRDNSKNTLYLQMNSLRAEDTAVYYCAKMGLFNTGNSYVDYWGQGTLVTVSS
VL: AQSELTQPPSVSEAPGQRVTISCSGSTSNIGNNAVIWYQQLPGKAPKLLIYYDDLLPSGVSDRFSGSKSGTSGSLAISGLQSEDEADYYCASWDDNLNGPLFGGGTKLTVL
In the case of B2, the “in vivo CLP” value in experiment [1] worked out at 60%. Besides, in experiment [2], the “in vivo CIA passive” value is recorded as 0%.

B3: E11: human anti-HMG1 antibody, recognizes HMG1 A-Box; VL/VH aa SEQ ID NO: 24/26 (antibody, listed as Homo sapiens, V domains shown)
VH: EVQLLESGGGLVQPGGSLRLSCAASGFTFSRYQMNWVRQAPGKGLEWVSSISPSGGHTHYADSVKGRFTISRDNSKNTLYLQMNSLRAEDTAVYYCAKDGRQGKISTVDHWGQGTLVTVSS
VL: AQDIQMTQSPGTLSLSPGERATLSCRASQSVRSNFLAWYQQKPGQAPRLLIYGASRRASGIPDRFSGSGFGADFTLSISRLEPEDFAVYYCQQYGSSPNTFGQGSRVEIK
Take B3: in experiment [1], the “in vivo CLP” value is 35%. Besides, the “detailed peptide mapping / domain recognized” value in the experiment on HMG1 peptides is reported as “recognizes the HMG1 A-Box”.

The record behind these values is patent publication US20080311122A1, “Antagonists of Hmgb1 and/or Rage and Methods of Use Thereof” (Medimmune, LLC, priority 2005, published 2008).
